The source of these data is patent US10456465B2, “Compositions, kits, and methods for the diagnosis prognosis, monitoring, treatment and modulation of post-transplant lymphoproliferative disorders and hypoxia associated angiogenesis disorders using galectin-1” (Dana-Farber Cancer Institute, Inc., priority 2009, dated 2019).

Assay [1] relates to HUVEC. The assay is described as follows: HUVEC migration (transwell). It counts as cell-based, human. The method, then: (§1) HUVEC transfected or not with specific siRNA or pre-incubated with signaling pathway inhibitors were exposed to VEGF or Gal1 with or without lactose, sucrose, 8F4F8G7 mAb or control isotype (IgG1κ) or specific antibodies for VEGFR1 (AP-MAB0702; Abcam), VEGFR2 (AF357; R&D), VEGFR3 (AB89501; Abcam) or VEGF (MAB293; R&D). Cells were processed for proliferation, migration, invasion and tube formation assays. Tumor-associated blood vessels were identified by flow cytometry using Alexa Fluor 647-conjugated anti-CD34 antibody (RAM34; eBioscience).
(§2) The formation of capillary-like tubular structures was assessed in Matrigel-coated plates essentially as described in Albini et al. (2001), Cancer Res 61, 8171-8178. In brief, HUVEC (3×10^4 cells/ml) transfected or not with specific siRNA or pre-incubated with signaling pathway inhibitors were seeded on Matrigel with our without Gal1 (0.1 to 3 μM) or VEGF (20 ng/ml) with or without lactose, sucrose, 8F4F8G7 mAb (0.5 μM) or isotype control (IgG1K) or blocking antibodies specific for VEGFR1 (5 μg/ml), VEGFR2 (2 μg/ml), VEGFR3 (10 μg/ml) or VEGF (10 μg/ml). Cells were incubated at 37° C. for periods ranging from 0 to 24 h and were visualized by phase-contrast microscopy. In another set of experiments, conditioned medium from hypoxic or normoxic KS cells infected or not with a retroviral vector containing Gal1 shRNA was assessed on HUVEC transfected or not with GnT5, GCNT1 or scr siRNA (100 nM). Capillary-like tubular structures were scored by counting the number of tubules (closed areas) per well in a phase-contrast microscope (Nikon E-100). For migration assays, HUVEC (4×10^4/well) transfected or not with specific siRNA were resuspended in M199 medium supplemented with 1% FCS. Cells were placed into the top chamber of the insert while the bottom well was filled with Gal1 or VEGF in the absence or presence of lactose, sucrose, 8F4F8G7 mAb or isotype control. After 24 hours, inserts were stained with crystal violet (Sigma) and analyzed in an inverted microscope. For each filter, 4 images were collected and cells were counted with the ImageJ software v1.34 (NIH).

Assay [2] deals with T1, Gal1 (Homo sapiens, UniProt P09382).
T1 construct: made in house
T1 sequence (P09382 whole entry): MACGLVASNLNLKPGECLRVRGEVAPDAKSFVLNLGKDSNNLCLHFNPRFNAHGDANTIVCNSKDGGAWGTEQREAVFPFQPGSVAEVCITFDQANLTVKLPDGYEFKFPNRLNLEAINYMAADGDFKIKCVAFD
The assay is described as follows: Binding of 488-Gal1 to HUVEC. How it is done: For glycophenotyping, ECs were incubated with biotinylated L-PHA, LEL, SNA, MAL II, PNA and HPA (all from Vector). Recombinant Gal1 was purified as described in Ilarregui et al. (2009) Nat Immunol 10, 981-991. For binding assays, ECs were incubated for 1 h at 4° C. with dyLight 488-labeled galectins in the absence or presence of lactose, sucrose, anti-Gal1 or isotype control mAb or following transfection with GnT5, GCNT1 or scrambled siRNA. Cells were analyzed on a FACSAria (BD Biosciences). For segregation, ECs were treated with Gal1 for 1 h, fixed and incubated for 1 h with anti-human VEGFR2 antibody (55B11; Cell Signaling) as described in Ilarregui et al. (2009) Nat Immunol 10, 981-991. Cells were analyzed on a Nikon laser confocal microscope (Eclipse E800).
DyLight 488-conjugated Gal1 (488-Gal1) was obtained using DyLight labeling kit (Thermo Scientific). Inhibitors of Jak2-STAT3 (AG490; 5 μM), Jnk-SAP (SP600125; 20 μM), p38 (SB202190; 10 μM), HIF-1α (3 μM) and O-glycosylation (benzyl-α-Ga1NAc; 2 mM) were from Calbiochem. Inhibitors of Erk1/2 (U0126; 5 μM), PI(3)K-Akt (Ly294002; 2 μM) and NF-κB (BAY 11-7082; 1 μM), ROS (N-acetyl-cysteine; NAC), N-glycosylation (swainsonine; 3 μM), lactose or sucrose (30 mM) were from Sigma. PNGase F (25 U/μg protein) was from New England Biolabs. Recombinant cytokines including IL-10 (50 ng/ml), IL-17 (5 ng/ml), TGF-β1 (3 ng/ml), IFN-γ (50 ng/ml), VEGF (20 ng/ml), bFGF (10 ng/ml) were from R&D. TNF (20 ng/ml) was from Sigma. Biotinylated lectins, including L-PHA (2 μg/ml), LEL (1 μg/ml), SNA (5 μg/ml), MAL II (10 μg/ml), PNA (10 μg/ml) and HPA (10 μg/ml) were purchased from Vector Labs and incubated in buffer containing 150 mM NaCl, 10 mM HEPES and 1% BSA (Sigma). ON-TARGETplus SMART siRNA pools against GnT5, GCNT1, VEGFR2, NRP-1, VEGF, HIF-1α and scrambled were obtained from Dharmacon. Transfections were performed by Lipofectamine-RNAiMAX (Invitrogen) following manufacturer's directions. Recombinant Gal3 and Gal8 were purified as described in Acosta-Rodriguez et al. (2004) J Immunol 172, 493-502 and Cardenas Delgado et al. (2010) FASEB J [Epub ahead of print].

The test system of assay [3] is HUVEC. The assay is described as follows: HUVEC capillary tube formation on Matrigel. It is filed as cell-based, human. The method, then: as §1, §2
For assay [4], the system named is HUVEC. Briefly: HUVEC proliferation ([3H]thymidine incorporation). It is filed as cell-based, human. How it is done:
as §1
For proliferation assays, HUVEC that were transfected or not with specific siRNA and cultured in complete M199 medium were trypsinized, harvested and seeded in 96-well microtiter plates (1×10^3 cells/well). Cells were pre-incubated for 1 hour at 37° C. with lactose, sucrose or signaling pathway inhibitors and then exposed to Gal1. After 24 hours, cells were incubated for an additional 24 hours in the presence of 0.8 μCi [^3H]-thymidine (NEN Dupont). Cells were then harvested and radioactivity was measured in a 1414 Liquid Scintillation Counter (Perkin Elmer).
On the technique in general: Uptake of a labelled nucleoside into DNA is a usual measure of proliferation.

On to rGal1: recombinant human galectin-1, for which the EC migration entry in assay [1] (HUVEC treated with Gal1) is on record as “elicited”. For the same molecule, in assay [2] (flow cytometry), the “binding of fluorescently-labeled Gal1 to ECs” value is “bound to ECs in a dose- and carbohydrate-dependent fashion”. Also, the “formation of three-dimensional tubular networks” value in assay [3] (HUVEC treated with Gal1) was “at levels similar to those attained by VEGF”. The EC proliferation result in assay [4] (HUVEC treated with Gal1) is “elicited”.

B1: anti-Gal1 monoclonal antibody 8F4F8G7 (antibody, V domains shown)
VH: EVQLQQSVAEFVRPGASVRLSCTASGFNIKNTYIHWVRQRPEQGLEWIGKIDPANGNTKYVPEFQGKATMTADTSSNTVYLHLSSLTSEDTAIYYCVDGYYGWYFAVWGTGTTVTVSS
VL: QAVVTQESALTTSPGETVTLTCRSSTGAVTTSNYANWVQEKPDHLFTGLIGATNNRAPGVPARFSGSLIGDKAVLTITGAQTEDEAIYFCALWYRNHFIFGSGTKVTVL
notes: Murine hybridoma mAb (deposit PTA-10535), lambda light chain; also called 14-19 8F4-F8-G7; clone 8F4.8F.67
B1: the “effect on Gal1-induced EC migration” value in assay [1] (induced by Gal1) is on record as “prevent”. Moreover, the “effect on EC migration in the absence of exogenous Gal1” value in assay [1] (no exogenous Gal1) is “did not alter”. In addition, in assay [2] (lactose/sucrose 30 mM, swainsonine 3 μM, benzyl-α-GalNAc 2 mM, mAb 0.5 μM), the “effect on binding of Gal1 to ECs” value is reported as “prevented”. Besides, the “effect on Gal1-induced capillary tube formation” value in assay [3] (induced by Gal1) was “prevent”. Further, the “effect on tube formation in the absence of exogenous Gal1” value in assay [3] (no exogenous Gal1) is on record as “did not alter”. Further, in assay [4] (induced by Gal1), the “effect on Gal1-induced EC proliferation” value was “prevent”.
